Biological target: recombinant importin α2-His (Laodelphax striatellus)
Test: MST

NP-GST (natural protein)
Kd: 9.1 µM

— PMC8325321
